The record followed here is PMC8406295, “Highly Basic Clusters in the Herpes Simplex Virus 1 Nuclear Egress Complex Drive Membrane Budding by Inducing Lipid Ordering” (mBio, 2021).

* marks the point of attachment. MTSL = spin label, CC1(C)C=C(CS*)C(C)(C)N1[O]

T1: UL34^(174–194) peptide, unlabelled (herpes simplex virus 1 (HSV-1), UniProt P10218 174-194, N-terminally acetylated; C-terminally amidated)
T1 construct: also called UL34 MPR peptide; source: synthetic peptide, bought: Peptide 2.0
T1 peptide: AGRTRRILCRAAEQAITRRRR

T2: UL34^(174–194) peptide, spin-labelled at C182 (herpes simplex virus 1 (HSV-1), UniProt P10218 174-194, N-terminally acetylated; C-terminally amidated; MTSL spin label on the native cysteine C182)
T2 construct: also called UL34 MPR peptide; C182_(34); source: synthetic peptide, bought: Peptide 2.0
T2 peptide: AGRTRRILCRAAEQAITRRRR

B1: UL31^(22–42) peptide (peptide)
peptide: Ac-RRSRSSAAGGTLGVVRRASRK-NH2
notes: source: synthetic peptide, bought: Peptide 2.0
B2: UL31^(41–50) peptide (peptide)
peptide: Ac-RKSLPPHARK-NH2
notes: also called UL31 mini-MPR peptide; source: synthetic peptide, bought: Peptide 2.0
B3: UL31^(22–C43) peptide, spin-labelled (peptide)
peptide: Ac-RRSRSSAAGGTLGVVRRASRKC(MTSL)-NH2
notes: also called C43_(31); source: synthetic peptide, bought: Peptide 2.0
B4: UL31^(41–C51) peptide, spin-labelled (peptide)
peptide: Ac-RKSLPPHARKC(MTSL)-NH2
SMILES: CC(=O)N[C@@H](CCCNC(=N)N)C(=O)N[C@@H](CCCCN)C(=O)N[C@@H](CO)C(=O)N[C@@H](CC(C)C)C(=O)N1CCC[C@H]1C(=O)N1CCC[C@H]1C(=O)N[C@@H](Cc1c[nH]cn1)C(=O)N[C@@H](C)C(=O)N[C@@H](CCCNC(=N)N)C(=O)N[C@@H](CCCCN)C(=O)N[C@@H](CSSCC1=CC(C)(C)N([O])C1(C)C)C(N)=O
notes: also called mini-MPR with C-terminal cysteine; C51_(31); source: synthetic peptide, bought: Peptide 2.0
B5: UL31^(C40–50) peptide, spin-labelled (peptide)
peptide: Ac-C(MTSL)RKSLPPHARK-NH2
SMILES: CC(=O)N[C@@H](CSSCC1=CC(C)(C)N([O])C1(C)C)C(=O)N[C@@H](CCCNC(=N)N)C(=O)N[C@@H](CCCCN)C(=O)N[C@@H](CO)C(=O)N[C@@H](CC(C)C)C(=O)N1CCC[C@H]1C(=O)N1CCC[C@H]1C(=O)N[C@@H](Cc1c[nH]cn1)C(=O)N[C@@H](C)C(=O)N[C@@H](CCCNC(=N)N)C(=O)N[C@@H](CCCCN)C(N)=O
notes: also called mini-MPR with N-terminal cysteine; C40_(31); source: synthetic peptide, bought: Peptide 2.0
B6: UL31^(C21–42) peptide, spin-labelled (peptide)
peptide: Ac-C(MTSL)RRSRSSAAGGTLGVVRRASRK-NH2
notes: also called C21_(31); source: synthetic peptide, bought: Peptide 2.0

One experiment has as its target T1, UL34^(174–194) peptide, unlabelled. Description: cross-linking; SM(PEG)6 at 50-fold molar excess, 30 min at room temperature in PBS, with 1 mM POPC/POPS/POPA 3:1:1 SUVs; 50 μM peptide, or 25 μM each in mixtures; 16% Tris-tricine SDS-PAGE, Coomassie. The following applies: both partners purified.
As to B1, the binding result is “binds”. The same measure, in the same setting: then B2, with “binds”.

In the next experiment the target is T2, UL34^(174–194) peptide, spin-labelled …. Kind of experiment: DEER (double electron-electron resonance) spectroscopy; MTSL spin-labelled peptides, approximately 50 μM peptide or 1:1 peptide mixture with POPC/POPS/POPA 3:1:1 SUVs, 1:200 P/L ratio, incubated 10 min at 25°C, frozen, measured at 60 K. The following applies: both partners purified.
B3: the binding result was “binds”.

Turning to B4, the binding result is given as “binds”.

Consider B5, for which the binding result was “binds”. Turning to B6, the binding result is “binds”.
